Measurements from patent publication US11535851B2, “Reagents for treatment of hepatitis B virus (HBV) infection and use thereof” (priority 2016, dated 2022).

Experiments:
[1] = test system: Luciferase reporter constructs carrying effector or effector complement sequences (HBV transcripts); test: Dual-luciferase reporter assay (strand preference activity) in HEK293 cells; assay type: cell-based; details: FIG. 1A; for activity of constructs in luciferase reporter assay: compared directly to corresponding shRNA constructs; for antisense (effector) strand activity (strand preference activity): relative to shRNA expressing counterparts
Method: Efficacy of the ddRNAi constructs expressing shmiRs or shRNAs of the disclosure to knockdown HBV transcripts is determined using dual-luciferase reporter assays in HEK293 cells.
Plasmid reporter constructs based on the pGL3 Luciferase Reporter Vector are constructed for effector and effector complement sequences from each of the shmiRs and shRNAs of the disclosure. Luciferase reporter constructs e.g., firefly luciferase reporter constructs, are generated by inserting the respective effector sequence or effector complement sequence of the shmiRs or shRNAs (as appropriate) with 20 bp flanking sequences at each end into the pGL3-control vector (Promega, Madison, Wis.). The inserts are subcloned using FseI and XbaI restriction enzyme sites following the luciferase reporter gene.
The dual-luciferase reporter assays are performed in HEK293 cells (ATCC). The HEK293 cells are cultured in DMEM medium containing 10% fetal bovine serum, 2 mM glutamine, penicillin (100 U/mL), and streptomycin (100 μg/mL) at 37° C. humid incubator with 5% CO2. The HEK293 cell are seeded at a density of 2×10^4 cells per well into 96-well culture plate one day prior to transfection.
ddRNAi expression constructs described in Example 1 (i.e., ddRNAi constructs designated HBV-shmiR1 to HBV-shmiR16, HBV-shmiRx3-v1 and HBV-shmiRx3-v2) are synthesized and inserted into an appropriate plasmid vector e.g., a pSsh vector, optionally with a proximal sequence element 7 (PSE7) for constructs expressing shRNAs.
Expression vectors comprising the ddRNAi expression constructs are co-transfected into HEK293 cells with a Luciferase reporter construct e.g., a firefly luciferase reporter construct, expressing an effector sequence or effector complement sequence of the corresponding shmiR or shRNA (as appropriate) at a ratio of 10:1 (ddRNAi expression construct: Luciferase reporter construct) using 0.3 uL of Lipofectamine 2000 reagent (Life Technologies, Carlsbad, Calif.) according to manufacturer's instructions. Cells are also transfected with 1 ng of a Renilla reporter construct (serving as a transfection control). 48 hour post-transfection, cell lysates are collected and analyzed using Dual Luciferase Reporter Assay System (Promega, Madison, Wis.). The firefly/Renilla activity ratios are determined for each transfection. Percentage inhibition of reporter expression is calculated relative to a negative control e.g., a construct expressing a random non-targeting sequence. The experiment is performed in replicate.
In addition, the three ddRNAi shmiR constructs (i.e., the ddRNAi shmiR constructs expressing shmiR6, shmiR15 and shmiR12 respectively) were compared for strand preference activity relative to their shRNA expressing counterparts.
The influence of addition of an ‘A’ nucleotide at the 3′ end or a ‘G’ nucleotide at the 5′ end of the sense sequence on thermodynamics of the shmiR variant was also assessed. The idea is to allow for the antisense (or effector) strand to be preferentially loaded into the RISC complex for functional RNAi activity.

[2] = test system: HepG2.2.15 cells; test: RNAi effector molecules (copies per cell) in HepG2.2.15 cells transduced with AdV vectors; assay type: cell-based, human; details: HepG2.2.15, AdV vectors MOI 100, days 3-6; versus corresponding shRNA; FIG. 3
Method: Single and triple shmiR or shRNA AdV vectors were prepared by subcloning the ddRNAi expression constructs described in Example 1 (i.e., ddRNAi constructs designated HBV-shmiR1 to HBV-shmiR16, HBV-shRNA1-HBV-shRNA16, HBV-shmiRx3-v1, HBV-shmiRx3-v2 and HBV-shRNAx3-v1) into a adenovirus (AdV) construct for virus production (Vector Biolabs, Malvern Pa.).
HepG2.2.15 cells were infected with the HBV shmiR AdV vectors or HBV shRNA AdV vectors in cell suspension and cultured on multi-well plates. Each well contained a suspension of approximately 1.25×10^5 HepG2.2.15 cells and one of the single or triple HBV shmiR AdV vectors, or one of the single or triple HBV shRNA AdV vectors, at MOI-100. Following transduction, cells were cultured at 37° C. at 5% CO2 for 3-7 days and harvested for total RNA isolation using Qiagen miRNeasy mini kit (Valencia, Calif.) at 3, 4, 5, and 6 days post-transfection.
Total RNAs were quantified using the NanoDrop 1000 Spectrophotometer (Thermo Scientific) and then diluted to a working concentration of 10 ng/μl.
RNAi effector molecules expressed as copies per cell were determined for shmiR-12 and shmiR-15 (FIGS. 3A and 3B, respectively) when expressed in HepG2.2.15 cells from single or triple HBV shmiR AdV vector(s) using Qiagen's miScript PCR system (designed to quantitate RNA effector molecules processed from shmiR or shRNA). […]

[3] = test system: HBV transcripts at regions corresponding to HBsAg, HBcAg and HbxAg; test: Inhibition of HBV transcripts in HepG2.2.15 cells transduced with AdV vectors (RT-qPCR, relative to GAPDH mRNA); assay type: cell-based, HBV (serotype ayw, genotype D); details: HepG2.2.15, MOI of 100, 3, 4, 5 and 6 days after infection; versus corresponding shRNA constructs; FIG. 4
Method: Levels of inhibition of HBV transcripts at regions corresponding to HBV antigens HBsAg, HBcAg and HbxAg, relative to levels of GAPDH mRNA, are determined by normalizing the respective HBV mRNA transcript levels to GAPDH mRNA for each sample. Briefly, 100 ng of total RNA is used to synthesize cDNA using High Capacity cDNA Reverse Transcription Kit (Life Technologies, Carlsbad, Calif.) according to manufacturer instructions. Quantitative PCR amplifications of regions within HBV antigens HBsAg, HBcAg, HbxAg, and GAPDH is then performed using Power SYBR Green PCR Master Mix (Life Technologies) and the primer sets listed in Table 1. Standard real-time PCR conditions are used: initial denaturation at 95° C. for 10 min followed by 40 cycles of 95° C. for 15 sec and 60° C. for 1 min. […]
Levels of inhibition of HBV transcripts at regions corresponding to HBV antigens HBsAg, HBcAg and HbxAg, relative to levels of GAPDH mRNA, were determined according to the method described in Example 5.
Levels of inhibition of HBV transcripts at regions corresponding to HBV antigens HBsAg, HBcAg and HbxAg, relative to levels of GAPDH mRNA, for each shmiR of the disclosure (expressed individually, or as part of a triple construct), was determined at an MOI of 100 at 3, 4, 5 and 6 days after infection with HBV shmir or shRNA AdV vectors.

Molecule	activity of constructs in luciferase reporter assay [1]	antisense (effector) strand activity (strand preference activity) [1]	levels of effector RNAi molecule (copies per cell) [2]	silencing of HBV RNAs (HBsAg, HBcAg, HbxAg regions) [3]
shmiR-15: shmiR targeting HBV; RNA SEQ ID NO: 57, encoded by DNA SEQ ID NO: 73 (nucleic acid, expressed or natural sequence) GGUAUAUUGCUGUUGACAGUGAGCGAAGUGGUUCGUAGGGCUUUCCACUGUGAAGCAGAUGGGUGGAAAGCCCUACGAACCACUGCGCCUACUGCCUCGGACUUCAA	more effective than the corresponding shRNA constructs	higher antisense (effector) strand activity relative to the corresponding shRNAs	higher than the corresponding shRNAs	greater silencing of HBV RNAs compared to the corresponding shRNA expressing constructs
shmiR-12: shmiR targeting HBV; RNA SEQ ID NO: 54, encoded by DNA SEQ ID NO: 70 (nucleic acid, expressed or natural sequence) GGUAUAUUGCUGUUGACAGUGAGCGAGUCCCGUCGGCGCUGAAUCCACUGUGAAGCAGAUGGGUGGAUUCAGCGCCGACGGGACGCGCCUACUGCCUCGGACUUCAA	more effective than the corresponding shRNA constructs	higher antisense (effector) strand activity relative to the corresponding shRNAs	higher than the corresponding shRNAs	greater silencing of HBV RNAs compared to the corresponding shRNA expressing constructs
shmiR-6: shmiR targeting HBV; RNA SEQ ID NO: 48, encoded by DNA SEQ ID NO: 64 (nucleic acid, expressed or natural sequence) GGUAUAUUGCUGUUGACAGUGAGCGACAGGUCCCCUAGAAGAAGAAACUGUGAAGCAGAUGGGUUUCUUCUUCUAGGGGACCUGCCGCCUACUGCCUCGGACUUCAA	more effective than the corresponding shRNA constructs	higher antisense (effector) strand activity relative to the corresponding shRNAs		
